Test results reported in the supplement of paper PMC10567573.

B1: PBXIP1 (parent)
chain: LPVETLGPASRMDPESERALQAPH

Variants of: B1
Experiment: protein stability index of a GFP-peptide fusion (GPS, HEK-293T) (PSI 1-6); higher = more stable
Settings: c terminus: a fixed tail appended
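Note: lentivirally expressed fusions sorted by FACS into six bins by GFP to DsRed ratio, PSI derived from sequencing read proportions per bin multiplied by bin number.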

Variant	protein stability index
LPVETNGPASRMDPESERALQAPH [L6N]	5.42
LPVETYGPASRMDPESERALQAPH [L6Y]	5.53
LPVETEGPASRMDPESERALQAPH [L6E]	5.21
LPVETGGPASRMDPESERALQAPH [L6G]	4.71
LPVETAGPASRMDPESERALQAPH [L6A]	5.19
LPVETLGPISRMDPESERALQAPH [A9I]	4.04
LPVETLGPDSRMDPESERALQAPH [A9D]	4.54
LPVETLGPVSRMDPESERALQAPH [A9V]	2.51
LPVETLGPPSRMDPESERALQAPH [A9P]	4.92
LPVEWLGPASRMDPESERALQAPH [T5W]	4.65
LPVERLGPASRMDPESERALQAPH [T5R]	4.14
LPVETLGPASRMDNESERALQAPH [P14N]	4
LPVETLGPASRMDLESERALQAPH [P14L]	3.91
LPVETLGPASRMDIESERALQAPH [P14I]	4.22
LPVETLGPASRMDGESERALQAPH [P14G]	3.56
LPVETLGPASRMDCESERALQAPH [P14C]	4.13
LPVETLGPASRMDPESERALQANH [P23N]	4.26
LPVETLGPASRMDPESERALQAGH [P23G]	5.01
LPVETLGPASRMDPESERALQADH [P23D]	4.6
LPVETLGPASRMDPESERALQPPH [A22P]	4.27
LPVETLGPASRMDPESERALQNPH [A22N]	4.5
LPVETLGPASRMDPESERALQGPH [A22G]	4.72
LPVETLGPASRMDPESERALQSPH [A22S]	4.36
LPVETLGPASRMDPESERALQWPH [A22W]	3.25

Variant	protein stability index
LPVETLGPASRMDPESERALQKPH [A22K]	4.4
LPVETLGPASRMDPESERALQTPH [A22T]	4.7
LPVETLGPASRMDPESERALQRPH [A22R]	4.78
LPVETLGPASRMDPESERALQFPH [A22F]	4.01
LPVETLGPASRVDPESERALQAPH [M12V]	4.34
LPVETLGPASREDPESERALQAPH [M12E]	4.46
LPVETLGPASRDDPESERALQAPH [M12D]	4.95
LPVETLGPASRIDPESERALQAPH [M12I]	4.5
LPVETLGPASRHDPESERALQAPH [M12H]	4.11
LPVETLGPASRADPESERALQAPH [M12A]	4.31
LPVETLGPASRLDPESERALQAPH [M12L]	4.04
LPVETLGPASRMDPESERILQAPH [A19I]	4
LPVETLGPASRMDPESERMLQAPH [A19M]	4.21
LPVETLGPASRMDPESERLLQAPH [A19L]	4.22
LPVETLGPASRMDPESERGLQAPH [A19G]	4.23
LPVETLGPASRMDPESERSLQAPH [A19S]	4.19
LPVETLGPASRMDPESERHLQAPH [A19H]	4.31
LPVETLGPACRMDPESERALQAPH [S10C]	4.24
LPVETLGPANRMDPESERALQAPH [S10N]	5.01
LPVETLGPAGRMDPESERALQAPH [S10G]	4.47
LPVETLGPAQRMDPESERALQAPH [S10Q]	4.88
LPVETLGPALRMDPESERALQAPH [S10L]	3.53
LPVETLGPASRMDPESEQALQAPH [R18Q]	4.55
LPVETLGPASRMDPESEDALQAPH [R18D]	4.44

Variant	protein stability index
LPVETLGPASRMDPESEVALQAPH [R18V]	4.45
LPVETLGVASRMDPESERALQAPH [P8V]	4.83
LPVETLGKASRMDPESERALQAPH [P8K]	4.39
LPVETLGEASRMDPESERALQAPH [P8E]	5.52
LGVETLGPASRMDPESERALQAPH [P2G]	4.98
LPVETLGPASRMDPEKERALQAPH [S16K]	4.34
LPVETLGPASRMDPERERALQAPH [S16R]	3.56
LPVETLGPASRMDPETERALQAPH [S16T]	4.35
LPVETLGPASRMDPENERALQAPH [S16N]	4.54
LPVTTLGPASRMDPESERALQAPH [E4T]	5.18
LPVHTLGPASRMDPESERALQAPH [E4H]	4.79
LPVATLGPASRMDPESERALQAPH [E4A]	5.07
LPVVTLGPASRMDPESERALQAPH [E4V]	4.62
LPVGTLGPASRMDPESERALQAPH [E4G]	5.03
LPVETLPPASRMDPESERALQAPH [G7P]	4.61
LPVETLCPASRMDPESERALQAPH [G7C]	5
LPVETLRPASRMDPESERALQAPH [G7R]	5.12
LPVETLAPASRMDPESERALQAPH [G7A]	5.51
LPVETLKPASRMDPESERALQAPH [G7K]	5.55
VPVETLGPASRMDPESERALQAPH [L1V]	4.65
WPVETLGPASRMDPESERALQAPH [L1W]	5.13
FPVETLGPASRMDPESERALQAPH [L1F]	4.61
LPEETLGPASRMDPESERALQAPH [V3E]	5.36
LPAETLGPASRMDPESERALQAPH [V3A]	4.73

Variant	protein stability index
LPFETLGPASRMDPESERALQAPH [V3F]	4.88
LPKETLGPASRMDPESERALQAPH [V3K]	5.38
LPTETLGPASRMDPESERALQAPH [V3T]	5.56
LPVETLGPASRMWPESERALQAPH [D13W]	3.71
LPVETLGPASRMGPESERALQAPH [D13G]	4.41
LPVETLGPASRMPPESERALQAPH [D13P]	4.13
LPVETLGPASRMNPESERALQAPH [D13N]	4.66
LPVETLGPASRMDPWSERALQAPH [E15W]	3.1
LPVETLGPASRMDPKSERALQAPH [E15K]	4.04
LPVETLGPASRMDPESYRALQAPH [E17Y]	3.92
LPVETLGPASRMDPESRRALQAPH [E17R]	3.91
LPVETLGPASRMDPESDRALQAPH [E17D]	3.97
LPVETLGPASRMDPESERALIAPH [Q21I]	4.09
LPVETLGPASRMDPESERALRAPH [Q21R]	4.44
LPVETLGPASRMDPESERALLAPH [Q21L]	3.96
LPVETLGPASRMDPESERALTAPH [Q21T]	4.55
LPVETLGPASRMDPESERAMQAPH [L20M]	4.45
LPVETLGPASRMDPESERAVQAPH [L20V]	3.82
LPVETLGPASRMDPESERACQAPH [L20C]	3.99
LPVETLGPASRMDPESERARQAPH [L20R]	4.86
LPVETLGPASRMDPESERALQAPL [H24L]	3.94
LPVETLGPASRMDPESERALQAPW [H24W]	4.07
